Test results: US20260055368A1 (KIROMIC BIOPHARMA, published 2026)
One block for each molecule: values may come before it.

Key:
[1] = target: Mesothelin isoform 2 (IsoMSLN) (Homo sapiens (Human)) (UniProt Q13421); assay: flow cytometry on Lenti-X 293T cells transiently expressing MSLN isoform 2 (EGFP-gated)
[2] = target: MSLN isoform 1 (Mesothelin canonical polypeptide) (Homo sapiens (Human)) (UniProt Q13421); assay: flow cytometry on Lenti-X 293T cells transiently expressing MSLN isoform 1 (EGFP-gated)
[3] = target: MSLN isoform 1 (Mesothelin canonical polypeptide) (Homo sapiens (Human), UniProt Q13421 37-598); assay: flow cytometry on Lenti-X 293T cells transiently expressing MSLN isoform 1
Source text: (§1) FIGS. 13A-13C show detection of cell surface expression of MSLN isoform 1 and 2 on the tumor cell surface by anti-isoMSLN-specific antibodies. FIG. 13A: the binding curve of different MSLN antibody clones in MSLN isoform 1 or isoform 2 overexpressing 293T cells. MSLN isoform 1 or 2 were transiently expressed in Lenti-X 293T cells; 48 hrs after transfection the cells were harvested and stained for different anti-MSLN antibody or mIgG1 isotype control (with different antibody concentration). MSLN-expressing cells were gated based on EGFP expression. The antibody binding MFI is plot along with the antibody concentration. FIG. 13B: flow cytometry staining of NCI H226 and Hela tumor cell lines with different anti-MSLN antibody clones. FIG. 13C: binding curve of increasing concentration of anti-IsoMSLN antibody clones to NCI H226 cells. The positive percentage of MSLN is plotted versus the antibody concentration.
(§2) Cell transfection and flow cytometry. […] 3 days after transfection, the transfected cells were harvested, counted, and wash once with FACS buffer, and resuspended in 100 μl FACS buffer containing […] human FcR blocker (BD Bioscience) per 0.1 million cells for 10 min, 4° C. […] Samples were acquired with NovoCyte 3000 and analyzed by NovoExpress (ACEA Biosciences Inc).

[4] = target: T1, Mesothelin isoform 2 (IsoMSLN) (Homo sapiens (Human), UniProt Q13421 37-598); assay: flow cytometry on Lenti-X 293T cells transiently expressing MSLN isoform 2 (EGFP-gated)
T1 construct: It was transiently expressed in Lenti-X 293T cells and is endogenous on NCI H226 cells; also called MSLN isoform 2; IsoMSLN2
Source text: as §1, §2

MSLN isoform 1 (Mesothelin canonical polypeptide) (Homo sapiens (Human)), sequence (Q13421 other isoform, or with tags, fused parts or gaps limits assumed): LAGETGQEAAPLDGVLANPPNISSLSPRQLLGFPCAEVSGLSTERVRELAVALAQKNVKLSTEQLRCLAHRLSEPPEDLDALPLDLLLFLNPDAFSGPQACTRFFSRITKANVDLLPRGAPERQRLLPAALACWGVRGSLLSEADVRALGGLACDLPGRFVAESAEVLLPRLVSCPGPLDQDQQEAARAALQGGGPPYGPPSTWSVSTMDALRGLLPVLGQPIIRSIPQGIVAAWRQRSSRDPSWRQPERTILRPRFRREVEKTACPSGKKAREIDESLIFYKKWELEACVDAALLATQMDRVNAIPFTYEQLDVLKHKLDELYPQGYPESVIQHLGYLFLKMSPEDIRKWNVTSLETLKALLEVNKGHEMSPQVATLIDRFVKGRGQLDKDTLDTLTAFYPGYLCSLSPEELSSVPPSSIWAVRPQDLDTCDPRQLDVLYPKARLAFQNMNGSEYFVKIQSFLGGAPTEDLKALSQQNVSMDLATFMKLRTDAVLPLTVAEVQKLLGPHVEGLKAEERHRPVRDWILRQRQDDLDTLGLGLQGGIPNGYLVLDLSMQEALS
MSLN isoform 1 (Mesothelin canonical polypeptide), sequence (Q13421 other isoform, or with tags, fused parts or gaps limits assumed): as above
T1 sequence (Q13421 37-606 limits assumed, form in doubt): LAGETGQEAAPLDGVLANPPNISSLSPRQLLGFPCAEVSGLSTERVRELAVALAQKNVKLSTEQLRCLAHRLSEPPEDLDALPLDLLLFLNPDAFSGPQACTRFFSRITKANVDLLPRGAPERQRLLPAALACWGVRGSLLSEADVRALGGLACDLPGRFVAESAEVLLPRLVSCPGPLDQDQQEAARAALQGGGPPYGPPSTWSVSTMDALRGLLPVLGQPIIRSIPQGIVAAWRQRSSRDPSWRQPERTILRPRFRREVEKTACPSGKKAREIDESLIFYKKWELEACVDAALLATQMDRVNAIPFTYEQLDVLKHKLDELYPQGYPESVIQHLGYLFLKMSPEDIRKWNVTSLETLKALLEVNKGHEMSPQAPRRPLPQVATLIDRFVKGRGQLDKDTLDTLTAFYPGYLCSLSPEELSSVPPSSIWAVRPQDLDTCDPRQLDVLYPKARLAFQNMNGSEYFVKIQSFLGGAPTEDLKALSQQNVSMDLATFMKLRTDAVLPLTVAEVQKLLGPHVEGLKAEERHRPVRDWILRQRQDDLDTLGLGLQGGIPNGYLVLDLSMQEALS
Mesothelin isoform 2 (IsoMSLN) (Homo sapiens (Human)), sequence (Q13421 37-606 limits assumed, form in doubt): as above

EC50 [1]: 0.106 µg/mL
EC50 [2]: 0.152 µg/mL
Molecule: Anti-MSLN mAb clone K1 (antibody)

binding result [3]: no binding
EC50 [4]: 0.073 µg/mL
B1: 1B6 monoclonal antibody (Binding Molecule A) (antibody, V domains shown)
VH: EVKLVESGGGLVKPGGSLKLSCEASGFTFSRYAMSWVRHTPEKRLAWVASITFGGDPYYPDGLKGRFTISRDNTRNILYLQMNSLRSEDTAMYYCVRHESWFAYWGQGTLVTVSA
VL: DVLMTQTPLSLPVSLGEQVSISCRSSQTIVHTDGNIYLEWYLQNPGQSPRLLIYKISNRFSGVPDRFSGSGSGTDFTLKISRVEAEDLGIYYCFQASHVPYTFGGGTKLEIK
notes: also called 1B6 antibody; 1B6 clone
